Each binder was assayed against T1, human PD-L1-Fc (R&D Systems) (human, UniProt Q9NZQ7 19-239) (assay: soluble Affimer ELISA).
T1 construct: Bought from R&D Systems; Biotinylated in-house for the phage selection; also called huPD-L1-Fc; human PD-L1-Fc antigen; not shown: Fc part of the bought fusion
T1 sequence (Q9NZQ7 19-239 limits assumed): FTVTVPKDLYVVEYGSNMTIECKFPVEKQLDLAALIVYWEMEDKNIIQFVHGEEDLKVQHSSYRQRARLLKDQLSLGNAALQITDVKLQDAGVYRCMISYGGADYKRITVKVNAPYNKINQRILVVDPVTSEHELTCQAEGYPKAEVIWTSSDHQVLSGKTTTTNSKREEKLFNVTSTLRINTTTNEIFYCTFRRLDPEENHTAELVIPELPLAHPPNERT

| Binder | binding result |
| --- | --- |
| Clone 69 (designed binder, His-tagged) MIPGGLSEAKPATPEIQEIVDKVKPQLEEKTGETYGKLEAVQYKTQVVYKVDNNNYQGTNYYIKVRAGDNKYMHLKVFKSLITWQLNQPREDLVLTGYQVDKNKDDELTGF | binds |
| Clone 57 (designed binder, His-tagged) MIPGGLSEAKPATPEIQEIVDKVKPQLEEKTGETYGKLEAVQYKTQVVELDGDHTWLGTNYYIKVRAGDNKYMHLKVFKSLRQLHRIWYFEDLVLTGYQVDKNKDDELTGF | binds |
| Clone 72 (designed binder, His-tagged) MIPGGLSEAKPATPEIQEIVDKVKPQLEEKTGETYGKLEAVQYKTQVVIHEPEIWWYGTNYYIKVRAGDNKYMHLKVFKSLHKADRQKEREDLVLTGYQVDKNKDDELTGF | binds |
| Clone 70 (designed binder, His-tagged) MIPGGLSEAKPATPEIQEIVDKVKPQLEEKTGETYGKLEAVQYKTQVVIEEPSAFWWGTNYYIKVRAGDNKYMHLKVFKSLLRVRHSAYREDLVLTGYQVDKNKDDELTGF | binds |
| Clone 88 (designed binder, His-tagged) MIPGGLSEAKPATPEIQEIVDKVKPQLEEKTGETYGKLEAVQYKTQVVAVHAPQYAPGTNYYIKVRAGDNKYMHLKVFKSLWSEKVAVFPEDLVLTGYQVDKNKDDELTGF | binds |
| Clone 71 (designed binder, His-tagged) MIPGGLSEAKPATPEIQEIVDKVKPQLEEKTGETYGKLEAVQYKTQVVASFPEISWYGTNYYIKVRAGDNKYMHLKVFKSLKNYPKTGVTEDLVLTGYQVDKNKDDELTGF | binds |
| Clone 78 (designed binder, His-tagged) MIPGGLSEAKPATPEIQEIVDKVKPQLEEKTGETYGKLEAVQYKTQVVDQGWWENWAGTNYYIKVRAGDNKYMHLKVFKSLIWENNLRIHEDLVLTGYQVDKNKDDELTGF | binds |
| Clone 75 (designed binder, His-tagged) MIPGGLSEAKPATPEIQEIVDKVKPQLEEKTGETYGKLEAVQYKTQVVINQHENFKQGTNYYIKVRAGDNKYMHLKVFKSLHLFHGLWYIEDLVLTGYQVDKNKDDELTGF | binds |
| Clone 59 (designed binder, His-tagged) MIPGGLSEAKPATPEIQEIVDKVKPQLEEKTGETYGKLEAVQYKTQVVREPALWHFRGTNYYIKVRAGDNKYMHLKVFKSLTFKVDTWKVEDLVLTGYQVDKNKDDELTGF | binds |
| Clone 65 (designed binder, His-tagged) MIPGGLSEAKPATPEIQEIVDKVKPQLEEKTGETYGKLEAVQYKTQVVDYRAIWHWWGTNYYIKVRAGDNKYMHLKVFKSLFHAEGDIWDEDLVLTGYQVDKNKDDELTGF | binds |
| Clone 60 (designed binder, His-tagged) MIPGGLSEAKPATPEIQEIVDKVKPQLEEKTGETYGKLEAVQYKTQVVPQVQEPWWIGTNYYIKVRAGDNKYMHLKVFKSLYKAYIQGWNEDLVLTGYQVDKNKDDELTGF | binds |
| Clone 76 (designed binder, His-tagged) MIPGGLSEAKPATPEIQEIVDKVKPQLEEKTGETYGKLEAVQYKTQVVHDFTIRYPWGTNYYIKVRAGDNKYMHLKVFKSLEYHVTKRDQEDLVLTGYQVDKNKDDELTGF | binds |
| Clone 90 (designed binder, His-tagged) MIPGGLSEAKPATPEIQEIVDKVKPQLEEKTGETYGKLEAVQYKTQVVLGWWFGINQGTNYYIKVRAGDNKYMHLKVFKSLAHLQYEWGGEDLVLTGYQVDKNKDDELTGF | binds |
| Clone 66 (designed binder, His-tagged) MIPGGLSEAKPATPEIQEIVDKVKPQLEEKTGETYGKLEAVQYKTQVVNLKPDVQGSGTNYYIKVRAGDNKYMHLKVFKSLIVVKRYWYVEDLVLTGYQVDKNKDDELTGF | binds |
| Clone 63 (designed binder, His-tagged) MIPGGLSEAKPATPEIQEIVDKVKPQLEEKTGETYGKLEAVQYKTQVVQEYEDQEWAGTNYYIKVRAGDNKYMHLKVFKSLHLWNQQIYREDLVLTGYQVDKNKDDELTGF | binds |
| Clone 85 (designed binder, His-tagged) MIPGGLSEAKPATPEIQEIVDKVKPQLEEKTGETYGKLEAVQYKTQVVNDGKSLVLAGTNYYIKVRAGDNKYMHLKVFKSLRLWDDRVSGEDLVLTGYQVDKNKDDELTGF | binds |
| Clone 83 (designed binder, His-tagged) MIPGGLSEAKPATPEIQEIVDKVKPQLEEKTGETYGKLEAVQYKTQVVIYHELWNFYGTNYYIKVRAGDNKYMHLKVFKSLDNNGDGNWQEDLVLTGYQVDKNKDDELTGF | binds |
| Clone 87 (designed binder, His-tagged) MIPGGLSEAKPATPEIQEIVDKVKPQLEEKTGETYGKLEAVQYKTQVVKRLHLPQYPGTNYYIKVRAGDNKYMHLKVFKSLGNIEPITDLEDLVLTGYQVDKNKDDELTGF | binds |
| Clone 61 (designed binder, His-tagged) MIPGGLSEAKPATPEIQEIVDKVKPQLEEKTGETYGKLEAVQYKTQVVPTGTHQWAAGTNYYIKVRAGDNKYMHLKVFKSLWASLESGQNEDLVLTGYQVDKNKDDELTGF | binds |
| Clone 6 (designed binder, His-tagged) MIPGGLSEAKPATPEIQEIVDKVKPQLEEKTGETYGKLEAVQYKTQVVLSEAVYIWAGTNYYIKVRAGDNKYMHLKVFKSLNSRWYGPLGEDLVLTGYQVDKNKDDELTGF | binds |
| Clone 7 (designed binder, His-tagged) MIPGGLSEAKPATPEIQEIVDKVKPQLEEKTGETYGKLEAVQYKTQVVRQYYEWSWVGTNYYIKVRAGDNKYMHLKVFKSLFESPTEDNDEDLVLTGYQVDKNKDDELTGF | binds |
| Clone 74 (designed binder, His-tagged) MIPGGLSEAKPATPEIQEIVDKVKPQLEEKTGETYGKLEAVQYKTQVVRRWELWSFQGTNYYIKVRAGDNKYMHLKVFKSLWQEHTDSVEEDLVLTGYQVDKNKDDELTGF | binds |
| Clone 64 (designed binder, His-tagged) MIPGGLSEAKPATPEIQEIVDKVKPQLEEKTGETYGKLEAVQYKTQVVIAHIHWKYFGTNYYIKVRAGDNKYMHLKVFKSLHLAKGQWREEDLVLTGYQVDKNKDDELTGF | binds |
| Clone 8 (designed binder, His-tagged) MIPGGLSEAKPATPEIQEIVDKVKPQLEEKTGETYGKLEAVQYKTQVVPLPDPIDWVGTNYYIKVRAGDNKYMHLKVFKSLHIHLNQIYREDLVLTGYQVDKNKDDELTGF | binds |
| Clone 73 (designed binder, His-tagged) MIPGGLSEAKPATPEIQEIVDKVKPQLEEKTGETYGKLEAVQYKTQVVDWGWGIPWVGTNYYIKVRAGDNKYMHLKVFKSLWLYGVKRLPEDLVLTGYQVDKNKDDELTGF | binds |

From patent US20250243277A1 (AVACTA LIFE SCIENCES, published 2025)
